Data on eight variants can be found in article PMC8384158.

First the molecules themselves.
B1: TAP–Bag-1S [human] / PDIA3 [human (endogenous in MCF-7 and MCF-12A)] (parent)
chain 1: MNRSQEVTRDEESTRSEEVTREEMAAAGLTVTVTHSNEKHDLHVTSQQGSSEPVVQDLAQVVEEVIGVPQSFQKLIFKGKSLKEMETPLSALGIQDGCRVMLIGKKNSPQEEVELKKLKHLEKSVEKIADQLEELNKELTGIQQGFLPKDLQAEALCKLDRRVKATIEQFMKILEEIDTLILPENFKDSRLKRKGLVKKVQAFLAECDTVEQNICQETERLQSTNFALAE
chain 2: SDVLELTDDNFESRISDTGSAGLMLVEFFAPWCGHCKRLAPEYEAAATRLKGIVPLAKVDCTANTNTCNKYGVSGYPTLKIFRDGEEAGAYDGPRTADGIVSHLKKQAGPASVPLRTEEEFKKFISDKDASIVGFFDDSFSEAHSEFLKAASNLRDNYRFAHTNVESLVNEYDDNGEGIILFRPSHLTNKFEDKTVAYTEQKMTSGKIKKFIQENIFGICPHMTEDNKDLIQGKDLLIAYYDVDYEKNAKGSNYWRNRVMMVAKKFLDAGHKLNFAVASRKTFSHELSDFGLESTAGEIPVVAIRTAKGEKFVMQEEFSRDGKALERFLQDYFDGNLKRYLKSEPIPESNDGPVKVVVAENFDEIVNNENKDVLIEFYAPWCGHCKNLEPKYKELGEKLSKDPNIVIAKMDATANDVPSPYEVRGFPTIYFSPANKKLNPKKYEGGRELSDFISYLQREATNPPVIQEEKPKKKKKAQEDL
B2: TAP–Bag-1S [human] / Calnexin [human (endogenous in MCF-7 and MCF-12A)] (parent)
chain 1: B1 chain 1
chain 2: HDGHDDDVIDIEDDLDDVIEEVEDSKPDTTAPPSSPKVTYKAPVPTGEVYFADSFDRGTLSGWILSKAKKDDTDDEIAKYDGKWEVEEMKESKLPGDKGLVLMSRAKHHAISAKLNKPFLFDTKPLIVQYEVNFQNGIECGGAYVKLLSKTPELNLDQFHDKTPYTIMFGPDKCGEDYKLHFIFRHKNPKTGIYEEKHAKRPDADLKTYFTDKKTHLYTLILNPDNSFEILVDQSVVNSGNLLNDMTPPVNPSREIEDPEDRKPEDWDERPKIPDPEAVKPDDWDEDAPAKIPDEEATKPEGWLDDEPEYVPDPDAEKPEDWDEDMDGEWEAPQIANPRCESAPGCGVWQRPVIDNPNYKGKWKPPMIDNPSYQGIWKPRKIPNPDFFEDLEPFRMTPFSAIGLELWSMTSDIFFDNFIICADRRIVDDWANDGWGLKKAADGAAEPGVVGQMIEAAEERPWLWVVYILTVALPVFLVILFCCSGKKQTSGMEYKKTDAPQPDVKEEEEEKEEEKDKGDEEEEGEEKLEEKQKSDAEEDGGTVSQEEEDRKPKAEEDEILNRSPRNRKPRRE

One test covers variants of B1. Description: TAP pull-down interactome analysis (LC-MS/MS). The settings on record: with PDIA3 [human (endogenous in MCF-7 and MCF-12A)]; MCF-7 cells; read off a plot.
As for chain 1 MNRSQEVTRDEESTRSEEVTREEMAAAGLTVTVTHSNEKHDLHVTSQQGSSEPVVQDLAQVVEEVIGVPQSFQKLIFKGKSLKEMETPLSALGIQDGCRVMLKGKKNSPQEEVELKKLKHLEKSVEKIADQLEELNKELTGIQQGFLPKDLQAEALCKLDRRVKATIEQFMKILEEIDTLILPENFKDSRLKRKGLVKKVQAFLAECDTVEQNICQETERLQSTNFALAE [chain 1 I103K], the screen value is -0.07 log2.

In the case of chain 1 MNRSQEVTRDEESTRSEEVTREEMAAAGLTVTVTHSNEKHDLHVTSQQGSSEPVVQDLAQVVEEVIGVPQSFQKLIFKGKSLKEMETPLSALGIQDGCRVMLIGKKNSPQEEVELKKLKHLEKSVEKIADQLEELNKELTGIQQGFLPKDLQAEALCKLDDRVKATIEQFMKILEEIDTLILPENFKDSRLKRKGLVKKVQAFLAECDTVEQNICQETERLQSTNFALAE [chain 1 R161D], the screen value was -1.5 log2.

With chain 1 MNRSQEVTRDEESTRSEEVTREEMAAAGLTVTVTHSNEKHDLHVTSQQGSSEPVVQDLAQVVEEVIGVPQSFQKLIFKGKSLKEMETPLSALGIQDGCRVMLIGKKNSPQEEVELKKLKHLEKSVEKIADQLEELNKELTGIQQGFLPKDLQAEALCKLDRRVKATIEQFMKILEEIDTLILPENFKDSRLKDKGLVKKVQAFLAECDTVEQNICQETERLQSTNFALAE [chain 1 R193D], the screen value was -0.1 log2.

In the case of chain 1 MNRSQEVTRDEESTRSEEVTREEMAAAGLTVTVTHSNEKHDLHVTSQQGSSEPVVQDLAQVVEEVIGVPQSFQKLIFKGKSLKEMETPLSALGIQDGCRVMLIGKKNSPQEEVELKKLKHLEKSVEKIADQLEELNKELTGIQQGFLPKDLQAEALCKLDREVKATIEQFMKILEEIDTLILPENFKDSRLKRKGLVKKVQAFLAECDTVEQNICQETERLQSTNFALAE [chain 1 R162E], the screen value was -0.62 log2.

The next test covers variants of B2. Description: TAP pull-down interactome analysis (LC-MS/MS). As to conditions: with Calnexin [human (endogenous in MCF-7 and MCF-12A)]; MCF-7 cells; read off a plot.
As to chain 1 MNRSQEVTRDEESTRSEEVTREEMAAAGLTVTVTHSNEKHDLHVTSQQGSSEPVVQDLAQVVEEVIGVPQSFQKLIFKGKSLKEMETPLSALGIQDGCRVMLKGKKNSPQEEVELKKLKHLEKSVEKIADQLEELNKELTGIQQGFLPKDLQAEALCKLDRRVKATIEQFMKILEEIDTLILPENFKDSRLKRKGLVKKVQAFLAECDTVEQNICQETERLQSTNFALAE [chain 1 I103K], the screen value is -1.1 log2.

In the case of chain 1 MNRSQEVTRDEESTRSEEVTREEMAAAGLTVTVTHSNEKHDLHVTSQQGSSEPVVQDLAQVVEEVIGVPQSFQKLIFKGKSLKEMETPLSALGIQDGCRVMLIGKKNSPQEEVELKKLKHLEKSVEKIADQLEELNKELTGIQQGFLPKDLQAEALCKLDRRVKATIEQFMKILEEIDTLILPENFKDSRLKDKGLVKKVQAFLAECDTVEQNICQETERLQSTNFALAE [chain 1 R193D], the screen value is -0.55 log2.

With chain 1 MNRSQEVTRDEESTRSEEVTREEMAAAGLTVTVTHSNEKHDLHVTSQQGSSEPVVQDLAQVVEEVIGVPQSFQKLIFKGKSLKEMETPLSALGIQDGCRVMLIGKKNSPQEEVELKKLKHLEKSVEKIADQLEELNKELTGIQQGFLPKDLQAEALCKLDDRVKATIEQFMKILEEIDTLILPENFKDSRLKRKGLVKKVQAFLAECDTVEQNICQETERLQSTNFALAE [chain 1 R161D], the screen value is -1.6 log2.

As for chain 1 MNRSQEVTRDEESTRSEEVTREEMAAAGLTVTVTHSNEKHDLHVTSQQGSSEPVVQDLAQVVEEVIGVPQSFQKLIFKGKSLKEMETPLSALGIQDGCRVMLIGKKNSPQEEVELKKLKHLEKSVEKIADQLEELNKELTGIQQGFLPKDLQAEALCKLDREVKATIEQFMKILEEIDTLILPENFKDSRLKRKGLVKKVQAFLAECDTVEQNICQETERLQSTNFALAE [chain 1 R162E], the screen value is -1.1 log2.
